From the RNAGym collection of RNA variant scans (doi:10.7554/elife.80360) come the findings set out here.

B1: Hairpin Ribozyme (parent)
chain: GUCCUCUUUCACGUGCGCGUGAAAGAGAGAAGUGAACCAGAGAAACACACGUUGUGGUAUAUUACCUGGUA

The variants in this series derive from B1. Kind of series: self-cleavage, relative activity (ratio to wild type); higher = more cleavage; co-transcriptional.
Turning to GUCCUCUUUCACGUGCGCGUGAAAGAGAGAAGUGAACCAGAGAAACAGACGUUGUGGUAUAUUACUUGGUA, the self-cleavage is 0.156.

Consider GUCCUCUUUCACGUGCGCGUGAAAGAGAGAAGUGAACCAGAGAAACAGACGUUGAGGUAUAUUACCUGGUA, for which the self-cleavage was 0.148.

Turning to GUCCUCUUUCACGUGCGCGUGAAAGAGAGAAGUGAACCAGAGAAACUCACGUUGUGGUAUAUGACCUGGUA, the self-cleavage was determined as 0.0673.

On to GUCCUCUUUCACGUGCGCGUGAAAGAGAGAAGUGAACCAGAGAAACUCACGUUGUGGUAUAUAACCUGGUA, for which the self-cleavage was found to be 0.114.

As for GUCCUCUUUCACGUGCGCGUGAAAGAGAGAAGUGAACCAGAGAAACUCACGUUGUGGGAUAUUACCUGGUA, the self-cleavage amounted to 0.137.

Turning to GUCCUCUUUCACGUGCGCGUGAAAGAGAGAAGUGAACCAGAGAAACUCACGUUGUGGCAUAUUACCUGGUA, the self-cleavage was determined as 0.133.

With GUCCUCUUUCACGUGCGCGUGAAAGAGAGAAGUGAACCAGAGAAACAAACGUUGUGGUAUAUUUCCUGGUA, the self-cleavage stood at 0.0412.

As for GUCCUCUUUCACGUGCGCGUGAAAGAGAGAAGUGAACCAGAGAAACUCACGUUGUGGUAUAUUACCGGGUA, the self-cleavage turned out to be 0.185.

With GUCCUCUUUCACGUGCGCGUGAAAGAGAGAAGUGAACCAGAGAAACUCACGUUGUGGUAUAUUACCCGGUA, the self-cleavage was found to be 0.0849.

As for GUCCUCUUUCACGUGCGCGUGAAAGAGAGAAGUGAACCAGAGAAACAAACGUUGUGUUAUAUUACCUGGUA, the self-cleavage was 0.115.

GUCCUCUUUCACGUGCGCGUGAAAGAGAGAAGUGAACCAGAGAAACAUACGUUGUGGUAUAUUAUCUGGUA: the self-cleavage was 0.154.

For the variant GUCCUCUUUCACGUGCGCGUGAAAGAGAGAAGUGAACCAGAGAAACAAACGUUGUGGUCUAUUACCUGGUA, the self-cleavage came to 0.139.

On to GUCCUCUUUCACGUGCGCGUGAAAGAGAGAAGUGAACCAGAGAAACAAACGUUGUGGUUUAUUACCUGGUA, for which the self-cleavage stood at 0.121.

With GUCCUCUUUCACGUGCGCGUGAAAGAGAGAAGUGAACCAGAGAAACAAACGUUGUGGUGUAUUACCUGGUA, the self-cleavage came to 0.219.

Consider GUCCUCUUUCACGUGCGCGUGAAAGAGAGAAGUGAACCAGAGAAACAAACGUUGUGGUAUAUUACCUGGAA, for which the self-cleavage is 0.209.

On to GUCCUCUUUCACGUGCGCGUGAAAGAGAGAAGUGAACCAGAGAAACAAACGUUGUGGUAUAUUACCUGGGA, for which the self-cleavage amounted to 0.144.

Turning to GUCCUCUUUCACGUGCGCGUGAAAGAGAGAAGUGAACCAGAGAAACAGACGCUGUGGUAUAUUACCUGGUA, the self-cleavage was 0.218.

Turning to GUCCUCUUUCACGUGCGCGUGAAAGAGAGAAGUGAACCAGAGAAACAGACGAUGUGGUAUAUUACCUGGUA, the self-cleavage is 0.135.

Consider GUCCUCUUUCACGUGCGCGUGAAAGAGAGAAGUGAACCAGAGAAACAUACGUUGUGGUAUAUCACCUGGUA, for which the self-cleavage came to 0.19.

On to GUCCUCUUUCACGUGCGCGUGAAAGAGAGAAGUGAACCAGAGAAACAUACGUUGUGGUAUACUACCUGGUA, for which the self-cleavage is 0.118.

On to GUCCUCUUUCACGUGCGCGUGAAAGAGAGAAGUGAACCAGAGAAACAUACGUUGUGGUAUAAUACCUGGUA, for which the self-cleavage came out at 0.201.

Consider GUCCUCUUUCACGUGCGCGUGAAAGAGAGAAGUGAACCAGAGAAACAAACGUUGUGGUAUACUACCUGGUA, for which the self-cleavage is 0.207.

In the case of GUCCUCUUUCACGUGCGCGUGAAAGAGAGAAGUGAACCAGAGAAACAUACGUUGUGAUAUAUUACCUGGUA, the self-cleavage turned out to be 0.147.

As to GUCCUCUUUCACGUGCGCGUGAAAGAGAGAAGUGAACCAGAGAAACAAACGUUGUGGUACAUUACCUGGUA, the self-cleavage was 0.208.

Consider GUCCUCUUUCACGUGCGCGUGAAAGAGAGAAGUGAACCAGAGAAACUCACGUUGUCGUAUAUUACCUGGUA, for which the self-cleavage worked out at 0.125.

With GUCCUCUUUCACGUGCGCGUGAAAGAGAGAAGUGAACCAGAGAAACUCACGUUGUAGUAUAUUACCUGGUA, the self-cleavage worked out at 0.187.

For GUCCUCUUUCACGUGCGCGUGAAAGAGAGAAGUGAACCAGAGAAACAAACGAUGUGGUAUAUUACCUGGUA, the self-cleavage is 0.233.

With GUCCUCUUUCACGUGCGCGUGAAAGAGAGAAGUGAACCAGAGAAACAUACGUUGUUGUAUAUUACCUGGUA, the self-cleavage came out at 0.231.

For GUCCUCUUUCACGUGCGCGUGAAAGAGAGAAGUGAACCAGAGAAACAUACGUUGUGGUAAAUUACCUGGUA, the self-cleavage worked out at 0.107.

As to GUCCUCUUUCACGUGCGCGUGAAAGAGAGAAGUGAACCAGAGAAACAUACGUUGUGGUAUAUUGCCUGGUA, the self-cleavage stood at 0.0861.

Turning to GUCCUCUUUCACGUGCGCGUGAAAGAGAGAAGUGAACCAGAGAAACAUACGUUGUGGUAUAUUUCCUGGUA, the self-cleavage turned out to be 0.11.

In the case of GUCCUCUUUCACGUGCGCGUGAAAGAGAGAAGUGAACCAGAGAAACAUACGUUGUGGUAUAUUCCCUGGUA, the self-cleavage is 0.255.

GUCCUCUUUCACGUGCGCGUGAAAGAGAGAAGUGAACCAGAGAAACAUACGUUGUGGUAUAUUACCUAGUA: the self-cleavage amounted to 0.244.

Turning to GUCCUCUUUCACGUGCGCGUGAAAGAGAGAAGUGAACCAGAGAAACAUACGUUGUGGUAUAUUACCUCGUA, the self-cleavage came out at 0.247.

As to GUCCUCUUUCACGUGCGCGUGAAAGAGAGAAGUGAACCAGAGAAACAAACGUUGUGGUAUAUUACUUGGUA, the self-cleavage is 0.202.

As to GUCCUCUUUCACGUGCGCGUGAAAGAGAGAAGUGAACCAGAGAAACAAACGUUGUGGUAUAUUACGUGGUA, the self-cleavage turned out to be 0.245.

For the variant GUCCUCUUUCACGUGCGCGUGAAAGAGAGAAGUGAACCAGAGAAACAGACGUUGUCGUAUAUUACCUGGUA, the self-cleavage turned out to be 0.922.

GUCCUCUUUCACGUGCGCGUGAAAGAGAGAAGUGAACCAGAGAAACAGACGUUGUAGUAUAUUACCUGGUA: the self-cleavage amounted to 0.124.
